Key:
ARH-77 cells [1] = assay: Subcutaneous scid/ARH-77 xenograft, prophylactic model
Procedure: Tumor cells were injected subcutaneously into the left flank of SCID mice. Mice received twice-weekly intraperitoneal injections with BI-505, control antibody or rituximab at doses of 20, 2 and/or 0.2 mg/kg commencing one day after tumor cell inoculation. There were 8 to 10 animals per treatment group. […] Statistical significance was calculated relative to control antibody treatment using Kruskal-Wallis Test (Nonparametric ANOVA) with Dunn's Multiple Comparisons Test (tumor volume) or the log-rank test (mouse survival) using Graphpad Instat or Prism software, respectively. Statistical significance was considered for *p<0.05, **p<0.01, and ***p<0.001.
Tumor cells were injected subcutaneously into the left flank of SCID mice. Mice received twice-weekly intraperitoneal injections with BI-505 at doses of 0.02-20 mg/kg commencing day after tumor cell inoculation. There were 8-10 animals per treatment group. […] Statistical significance was calculated relative to control antibody treatment using Kruskal-Wallis Test (Nonparametric ANOVA) with Dunn's Multiple Comparisons Test (tumor volume) or the log-rank test (mouse survival) using Graphpad Instat or Prism software, respectively. Statistical significance was considered for *p<0.05, **p<0.01, and ***p<0.001. Graphs illustrate representative experiments out of several performed.
(FIG. 7A) ARH-77 cells were injected subcutaneously into the left flank of SCID mice (n=8 per group). Mice were treated with the different BI-505 isotypes twice weekly. […] Statistical significance was calculated relative to control antibody treatment using Kruskal-Wallis Test (Nonparametric ANOVA) with Dunn's Multiple Comparisons Test. Statistical significance was considered for *p<0.05, **p<0.01, and ***p<0.001.
Mice were anaesthetized with a mixture of sevofluran and oxygen prior to myeloma cell inoculation and 1-5×10^6 myeloma cells were then subcutaneously injected in a volume of 100 μl into the left flank.

PBMC = PBMC / T cell proliferation; type: cell-based
[2] = test system: ICAM-1 expressing tumor cell lines; assay: Complement-dependent cytotoxicity in tumor cell lines; type: cell-based; conditions: panel of ICAM-1 expressing tumor cell lines; human serum
Procedure: Target cells were harvested and incubated in RPMI medium with antibodies at 5 μg/mL or at titrated concentrations between 0.01-100 μg/mL for 60 min on ice. Cells were thereafter washed and resuspended in cold medium before dispension into flow cytometry tubes. Treatments were performed in triplicates. Human serum, normal or heat-inactivated, (Sigma, Sweden) was added to tubes and the samples were incubated for 2 h at 37° C. After completed incubation ToPo-Pro-3 was added at a final concentration of 0.3 μM and cells were analyzed for membrane permeabilization using flow cytometry.

ARH-77 cells [3] = assay: Disseminated scid/ARH-77 model of multiple myeloma; type: in vivo, scid mice; conditions: i.v. on Days 7, 10, 13, 16; antibody 2 mg/kg, bortezomib 0.5 mg/kg; vs control
Procedure: ARH-77 cells or RPMI-8226 were injected intraveniously into the SCID mice. (FIG. 6A) ARH-77 model. Animals received intravenous injections with antibody at 2 mg/kg or bortezomib (Velcade) at 0.5 mg/kg on Days 7, 10, 13, and 16 (as indicated by arrows in the graph). (FIG. 6B) RPMI-8226-model. BI-505 or control mAb was administered i.v at 2 mg/kg, twice weekly for 8 weeks, bortezomid, at 1 mg/kg, once weekly for 8 weeks, lenalidomide p.o with 2 mg/kg for 2 cycles consisting of 5 days of treatment and 2 days of wash out, melphalan i.v at 3 mg/kg, once weekly for 8 weeks, and dexamethasone (DXH) at 6 mg/kg/inj 3 times/week for 2 consecutive weeks. There were 6-10 mice per treatment group. Statistical significance was calculated using Log-rank Graphpad Prism software and determined at ***p<0.001. (FIG. 6C) To study the ICAM-1 level on human cells, the cells from different organs were stained and gated for CD38+/mCD45−/BI-505+. Left panel indicates the percentage of BI-505 positive cells in CD38+/mCD45 population and right panel the mean fluorescent intensity of the positive cells.
The anti-myeloma effect of BI-505 was examined in a disseminated model of multiple myeloma. The early and advanced disseminated model of multiple myeloma was performed at Oncodesign, Dijon, France. Briefly: 1×10^6 (early) or 5×10^6 (advanced) ARH-77 tumor cells in 200 μL of RPMI 1640 were injected intravenously (i.v) into the caudal vein of female scid mice (D0). Tumor cell injections were performed twenty four to forty eight hours after a whole body irradiation of mice (1.8 Gy, ^60Co, INRA, BRETENNIERES). The treatment was started at D5 (RPMI-8226 model) or D7 ([…] model) except alkeran which was administered at D10. B11 or control mAb was administered i.v. at 2 mg/kg, twice weekly for 8 weeks, bortezomib, at 1 mg/kg, once weekly for 8 weeks, lenalidomide p.o with 2 mg/kg for 2 cycles consisting of 5 days of treatment and 2 days of wash out, melphalan i.v. at 3 mg/kg, once weekly for 8 weeks and dexamethasone at 6 mg/kg, injected 2 consecutive weeks.
The disseminated model of scid/ARH-77 is a well-established experimental model that resembles human multiple myeloma disease progression and disease manifestation in many respects (33). We utilized this model to further characterize IgG B11 anti-myeloma activity (FIG. 6A). Intravenous injection of irradiated scid mice with 1×10^6 ARH-77 cells was previously shown to result in their dissemination and establishment in mouse bone-marrow, and resulting osteolytic bone-lesions and hypercalcemia, and ultimately, in animal paralysis or difficulty of breathing at which time animals were immediately sacrificed. […]

B1: IgG B11: fully human ICAM-1 antibody isolated from the n-CoDeR library; VH/VL sequences in FIG. 15 (SEQ ID NOs 8, 10) (antibody, V domains shown)
VH: EVQLLESGGGLVQPGGSLRLSCAASGFTFSNAWMSWVRQAPGKGLEWVAFIWYDGSNKYYADSVKGRFTISRDNSKNTLYLQMNSLRAEDTAVYYCARYSGWYFDYWGQGTLVTVSS
VL: QSVLTQPPSASGTPGQRVTISCTGSSSNIGAGYDVHWYQQLPGTAPKLLIYDNNNRPSGVPDRFSGSKSGTSASLAISGLRSEDEADYYCQSYDSSLSAWLFGGGTKLTVLG
modifications: B11 VH region; B11 VL region
For B1, the tumor growth (ARH-77 cells [1]; 20 mg/kg twice weekly i.p., commencing one day after tumor cell inoculation) was “completely prevent tumor-growth”, the survival (ARH-77 cells [1]; IgG B11 at 2 mg/kg, ten-fold lower dose than rituximab) was “complete survival” and the anti-tumor activity (ARH-77 cells [1]; dose of 0.2 mg/kg, dose titration) was “near maximal”. For the same molecule, the “dose at which anti-tumor activity peaked” value (ARH-77 cells [1]; dose titration 0.02-20 mg/kg twice weekly i.p.) was 2 mg/kg, the cell proliferation (PBMC; added in solution, resting or lipopolysaccharide pre-stimulated PBMCs) was “did not induce cell proliferation” and the cell proliferation (PBMC; immobilised by either protocol, or in solution with or without cross-linking reagent) was “did not induce cell proliferation”. For the same molecule, the “induction of CDC” value [2] was “did not induce CDC”, the animal survival (ARH-77 cells [3]) was “increased mean survival time” and the “time to symptomatic disease onset” value (ARH-77 cells [3]) was “doubled”.
